Drawing on publication PMC11480844 (2024), this text covers ratio to parent for 75 variants.

Sequences and labels used below:
B1: H2-Kb / F4 (parent complex)
chain 1: QQQVRQSPQSLTVWEGETAILNCSYEDSTFNYFPWYQQFPGEGPALLISIRSVSDKKEDGRFTIFFNKREKKLSLHITDSQPGDSATYFCAAMSNYNVLYFGSGTKLTVEP
chain 2: ETAVFQTPNYHVTQVGNEVSFNCKQTLGHDTMYWYKQDSKKLLKIMFSYNNKQLIVNETVPRRFSPQSSDKAHLNLRIKSVEPEDSAVYLCASSARQNSPLYFAAGTRLTVT
chain 3: not shown
chain 4: IQKTPQIQVYSRHPPENGKPNILNCYVTQFHPPHIEIQMLKNGKKIPKVEMSDMSFSKDWSFYILAHTEFTPTETDTYACRVKHDSMAEPKTVYWDRDM
chain 5: SIINFEKL
B2: H2-Kb / Ed8 (parent complex)
chain 1: AQSVTQPDARVTVSEGASLQLRCKYSYFGTPYLFWYVQYPRQGLQLLLKYYPGDPVVQGVNGFEAEFSKSNSSFHLRKASVHWSDWAVYFCAVSPGSGGKLTLGAGTRLQVNL
chain 2: DSGVVQSPRHIIKEKGGRSVLTCIPISGHSNVVWYQQTLGKELKFLIQHYEKVERDKGFLPSRFSVQQFDDYHSEMNMSALELEDSAMYFCASSPRASNYTFGSGTRLLVI
chain 3: not shown
chain 4: B1 chain 4
chain 5: SIINFEKL
Also: test concentration or dose not given here.

Variants of B1 are the subject of the first assay. The assay can be described thus: % of reporter cells activated (NFAT-GFP), raw.
On to chain 5 S1R, for which the ratio to parent was found to be 0.0259.
Still for that read-out and setting: in the case of chain 5 N4W it was 0.0415; in that of chain 5 N4E, 0.0228; in that of chain 5 I3A, 0.467.
Same read-out and setting: in the case of chain 5 F5G it was 0.264.
Still for that read-out and setting: the figure for chain 5 F5D is 0.129; for chain 5 F5C it is 1.29; for chain 5 F5P it is 0.0353.
Take chain 5 L8H: the ratio to parent is 0.805.
On to chain 5 L8T, for which the ratio to parent was found to be 0.614.
As for chain 5 I2A, the ratio to parent amounted to 1.38.
As for chain 5 I2M, the ratio to parent came to 0.617.
In the case of chain 5 I2V, the ratio to parent is 1.94.
As to chain 5 I2N, the ratio to parent is 0.305.

The variants in the next assay derive from B2. Kind of assay: % of reporter cells activated (NFAT-GFP), raw.
For the variant chain 5 L8F, the ratio to parent worked out at 1.12.
Still for that read-out and setting: the figure for chain 5 L8I is 1.15; for chain 5 L8D it is 0.903.
Same read-out and setting: in the case of chain 5 F5D it was 1.12; in that of chain 5 F5V, 1.09.
Take chain 5 F5W: the ratio to parent was 1.12.
The same measure, in the same setting: the figure for chain 5 F5L is 1.41; for chain 5 F5C it is 1.3.
For chain 5 F5P, the ratio to parent is 1.16.
chain 5 F5T: the ratio to parent was determined as 1.32.
On the same count and under the same terms, the figure for chain 5 F5G is 1.03; for chain 5 N4E it is 0.336.
As for chain 5 N4R, the ratio to parent was 0.442.
Still for that read-out and setting: in the case of chain 5 N4H it was 0.155; in that of chain 5 N4W, 0.00716.
In the case of chain 5 N4Q, the ratio to parent is 0.00512.
As to chain 5 N4P, the ratio to parent stood at 0.00499.
In the case of chain 5 N4S, the ratio to parent turned out to be 0.216.
With chain 5 N4L, the ratio to parent was found to be 0.84.
In the case of chain 5 N4T, the ratio to parent came out at 0.262.
In the case of chain 5 N4A, the ratio to parent was found to be 0.255.
In the case of chain 5 K7V, the ratio to parent worked out at 0.73.
With chain 5 K7I, the ratio to parent was 0.698.
On the same count and under the same terms, in the case of chain 5 K7F it was 0.393.
Still for that read-out and setting: the figure for chain 5 K7S is 0.898.
The same measure, in the same setting: the figure for chain 5 K7L is 0.815; for chain 5 K7G it is 0.616; for chain 5 K7H it is 1.25.
On to chain 5 K7M, for which the ratio to parent was 0.578.
The same measure, in the same setting: the figure for chain 5 K7P is 0.689; for chain 5 K7E it is 0.0642.
For chain 5 S1Q, the ratio to parent was found to be 1.24.
chain 5 S1W: the ratio to parent came to 1.05.
Same read-out and setting: in the case of chain 5 S1G it was 1.28; in that of chain 5 S1L, 0.917; in that of chain 5 S1V, 1.15.
Same read-out and setting: the figure for chain 5 S1T is 1.37.
On the same count and under the same terms, in the case of chain 5 S1M it was 1.27; in that of chain 5 S1P, 1.13.
Turning to chain 5 E6Y, the ratio to parent came out at 0.606.
The same measure, in the same setting: the figure for chain 5 E6M is 0.453; for chain 5 E6W it is 0.012; for chain 5 E6A it is 0.678.
On the same count and under the same terms, in the case of chain 5 E6C it was 0.0436; in that of chain 5 E6V, 0.0189; in that of chain 5 E6R, 0.459.
Regarding chain 5 I3H, the ratio to parent came out at 1.4.
Same read-out and setting: in the case of chain 5 I3L it was 1.3; in that of chain 5 I3A, 1.14.
In the case of chain 5 I3R, the ratio to parent is 0.541.
Still for that read-out and setting: the figure for chain 5 I3P is 1.25; for chain 5 I2D it is 1.39.
With chain 5 I2C, the ratio to parent was 1.33.
The same measure, in the same setting: in the case of chain 5 I2W it was 1.16; in that of chain 5 I2E, 1.34.
On the same count and under the same terms, the figure for chain 5 I2K is 1.18; for chain 5 I2N it is 1.26; for chain 5 I2Q it is 1.06.
Still for that read-out and setting: the figure for chain 5 I2L is 1.37; for chain 5 I2Y it is 1.06; for chain 5 I2R it is 1.16.
